Results reported in paper doi:10.1101/2023.05.26.542392.

Target: R203M mutant of full-length SARS-CoV-2 nucleocapsid (R203M-FLN) (SARS-CoV-2)
Test: AUC

## R203M mutant of full-length SARS-CoV-2 nucleocapsid (R203M-FLN) (natural protein)
  stoichiometry N: 2
